Measured values published in patent publication US10646540B2, “Peptide inhibitors of twist” (City of Hope, priority 2016, dated 2020).
“Also recorded” adds a separate entry of the source. Ends that are not written are not given here. Peptide text beside a SMILES is read from it. * marks the point of attachment. Cbz = O=C(OCc1ccccc1)*

Tests used:
[1] = target: T1, TWIST1 (Homo sapiens, UniProt Q15672); assay: Cell fractionation and western blot of TWIST1 and GFP in HEK-293 cells; type: cell-based
T1 construct: The cloning of TWIST1 into the pcDNA4-MycHis vector has been described previously [14]; expressed in transfected cells; host or cells: HEK-293
T1 sequence (Q15672 1-202): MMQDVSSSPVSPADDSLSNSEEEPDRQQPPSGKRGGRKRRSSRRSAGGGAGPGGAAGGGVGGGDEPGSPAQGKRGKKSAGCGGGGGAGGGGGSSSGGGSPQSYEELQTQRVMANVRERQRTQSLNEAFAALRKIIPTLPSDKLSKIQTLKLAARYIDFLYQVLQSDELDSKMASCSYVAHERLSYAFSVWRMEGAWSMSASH
Procedure: (§1) HEK-293 cells were grown in McCoy's 5A medium supplemented with 10% fetal bovine serum (FBS) and 1% penicillin/streptomycin (P/S). Ovcar4 cells were grown in RPMI medium with 10% FBS and 1% P/S. All cells were maintained at 37° C. and 90% humidity in a tissue culture incubator with 5% CO2 atmosphere. Cells were passaged every 2-4 days as they became confluent, using 0.25% trypsin. Where indicated, cells were transfected using 5 μL per well Lipofectamine 2000 (Life Technologies, Carlsbad, Calif.) in a total of 2 mL per well of OptiMEM low serum medium (Life Technologies). For proteasome inhibition studies, MG132 was added to cells in normal medium four hours after transfection and left on overnight. 5 μM was used for western studies, and 1 μM was used for luciferase assays.
(§2) In order to create a competitive inhibitor for TWIST1-RELA binding, the WR domain from TWIST1 was fused to GFP. To achieve this, PCR was used to amplify the final 63 nucleotides of the TWIST1 gene (including stop codon) and add 5′ XhoI and 3′ BamHI restriction sites. The PCR fragment and the pEGFP-C3 vector were subjected to XhoI-BamHI double digest (New England BioLabs, Ipswich, Mass.) and the two were ligated together. GFP lacking the WR domain was used as a control, and includes residues at the C-terminus encoded by the multiple cloning site of the vector. As a result, the molecular weights of the two GFP proteins are indistinguishable on a western blot. To achieve equal expression of GFP-WR compared to unmodified GFP, it was necessary to transfect cells with three-fold more GFP-WR plasmid versus GFP. A one to one ratio was sufficient for CoIP illustrated in FIG. 4C. […]
Protein was run on 4% stacking, 10% resolving polyacrylamide gels and transferred to PVDF membrane (GE Healthcare Bio-Sciences, Pittsburgh, Pa.) on a Trans-Blot SD Semi-Dry Transfer Cell (Bio-Rad, Hercules, Calif.). […] Protein was detected using FemtoGlow chemiluminescent substrate (Michigan Diagnostics, Royal Oak, Mich.) and the Pxi4 imager (Syngene, Frederick, Md.). […]

[2] = test system: IL-8 promoter; assay: Dual luciferase assay, firefly luciferase under control of the IL-8 promoter, in Ovcar4 cells; type: cell-based
Procedure: as §1, with “assays. […]” for “assays.”
Ovcar4 cells were plated at 50,000-75,000 cells per well, in 500 μL RPMI, in a 24 well plate and allowed to adhere overnight. […] The day after transfection, luciferase expression was quantified using the Dual Luciferase Assay kit (Promega, Madison, Wis.) according to the manufacturer instructions.
Western blots were quantified using GeneTools software. Data were graphed and analyzed in Microsoft Excel and GraphPad Prism 6, respectively. […] Luciferase assays were analyzed using one-way ANOVA with correction for multiple comparisons. […]

[3] = target: T2, TWIST1-RELA binding (Homo sapiens, UniProt Q15672); assay: Co-immunoprecipitation with RELA pulldown in transfected HEK-293 cells; conditions: increasing GFP-WR expression, total GFP held constant with control GFP
T2 construct: The cloning of TWIST1 into the pcDNA4-MycHis vector has been described previously [14]; The wild type RELA gene was also cloned into pcDNA4-MycHis; expressed in transfected cells; host or cells: HEK-293
T2 sequence (Q15672 1-202): T1 sequence (Q15672 1-202)
Source text: as §2, with “blot.” for “blot. To achieve equal expression of GFP-WR compared to unmodified GFP, it was necessary to transfect cells with three-fold more GFP-WR plasmid versus GFP. A one to one ratio was sufficient for CoIP illustrated in FIG. 4C.”
(§3) HEK-293 cells were plated at 500,000 cells per well, in 2 mL normal medium, in a 6 well plate and allowed to adhere. […] Cell pellets were lysed in RIPA buffer, and protein concentration was determined by BCA Protein Assay (Thermo Fisher, Waltham, Mass.). […]
(§4) Protein was run on 4% stacking, 10% resolving polyacrylamide gels and transferred to PVDF membrane (GE Healthcare Bio-Sciences, Pittsburgh, Pa.) on a Trans-Blot SD Semi-Dry Transfer Cell (Bio-Rad, Hercules, Calif.). […] Protein was detected using FemtoGlow chemiluminescent substrate (Michigan Diagnostics, Royal Oak, Mich.) and the Pxi4 imager (Syngene, Frederick, Md.). Quantitation was performed using the accompanying GeneTools software.

[4] = target: T3, RELA (Homo sapiens, UniProt Q04206); assay: Co-immunoprecipitation with GFP pulldown in transfected HEK-293 cells; type: binding; conditions: data not shown
T3 construct: The wild type RELA gene was also cloned into pcDNA4-MycHis; expressed in transfected cells; host or cells: HEK-293
T3 sequence (Q04206 whole entry): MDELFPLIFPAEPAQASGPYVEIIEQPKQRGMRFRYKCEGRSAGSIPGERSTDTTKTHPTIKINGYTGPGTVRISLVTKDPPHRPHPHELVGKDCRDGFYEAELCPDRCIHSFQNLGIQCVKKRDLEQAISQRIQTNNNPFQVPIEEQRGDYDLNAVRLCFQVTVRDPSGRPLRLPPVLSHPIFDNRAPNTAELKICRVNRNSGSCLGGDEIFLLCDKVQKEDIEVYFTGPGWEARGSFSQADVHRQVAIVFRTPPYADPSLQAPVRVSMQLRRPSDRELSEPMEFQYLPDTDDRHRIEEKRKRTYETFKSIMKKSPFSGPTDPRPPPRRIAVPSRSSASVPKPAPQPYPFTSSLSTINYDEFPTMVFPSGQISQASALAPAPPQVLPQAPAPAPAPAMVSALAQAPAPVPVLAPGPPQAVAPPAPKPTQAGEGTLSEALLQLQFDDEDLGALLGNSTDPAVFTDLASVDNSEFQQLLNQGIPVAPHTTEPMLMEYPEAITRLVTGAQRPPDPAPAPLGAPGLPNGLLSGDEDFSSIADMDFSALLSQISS
Source text: as §2, with “blot.” for “blot. To achieve equal expression of GFP-WR compared to unmodified GFP, it was necessary to transfect cells with three-fold more GFP-WR plasmid versus GFP. A one to one ratio was sufficient for CoIP illustrated in FIG. 4C.”
as §3, §4

[5] = target: T1, TWIST1; assay: as above; type: binding; conditions: increasing GFP-WR expression
Source text: as §2, with “blot.” for “blot. To achieve equal expression of GFP-WR compared to unmodified GFP, it was necessary to transfect cells with three-fold more GFP-WR plasmid versus GFP. A one to one ratio was sufficient for CoIP illustrated in FIG. 4C.”
as §3, §4

Compound	proportion of TWIST1 signal found in the cytoplasmic fraction ([1]; increasing GFP-WR transfection, western blot of fractionated cells)	absolute levels of TWIST1 and GFP in cytoplasmic and nuclear fractions ([1]; increasing amount of GFP-WR transfected)	IL-8 promoter driven FFluc expression (normalized to Renilla luciferase) ([2]; increasing dose of GFP-WR, Ovcar4 cells co-transfected with TWIST1 and RELA)	TWIST1 co-precipitated with RELA (TWIST1-RELA binding) [3]	RELA co-precipitated with GFP [4]	TWIST1 co-precipitated with GFP [5]	levels of TWIST1 and GFP in the cytoplasmic fraction after proteasome inhibition ([1]; MG132 5 μM overnight, cells expressing GFP-WR)	IL-8 promoter activity (FFluc expression) after proteasome inhibition ([2]; MG132 1 μM overnight, cells expressing GFP-WR)
GFP-WR: fusion protein of GFP and the 20 amino acid WR domain of TWIST1, expressed from pEGFP-C3 as competitive inhibitor of TWIST1-RELA binding (LELSYAFSVWRMEGAWSMSASH; also: fused to GFP)	slight increase; also recorded: mild increase	decreased	dose dependent drop; also recorded: dose-dependent reduction	reduced in a dose-dependent manner; also recorded: reduced in a dose dependent fashion	only trace amounts	more TWIST1 co-precipitated; also recorded: co-precipitated to a greater degree		
CC(C)C[C@@H](C=O)NC(=O)[C@H](CC(C)C)NC(=O)[C@H](CC(C)C)NC(=O)OCc1ccccc1 [MG132, reference compound] (Cbz-Leu-Leu-Leu-aldehyde)							partially rescue	increases; also recorded: partial rescue
